These results are taken from paper PMC9935906, “Network of hotspot interactions cluster tau amyloid folds” (Nature Communications, 2023).

Data set [1] deals with the molecule itself. In words: ThT fluorescence aggregation assay + TEM; peptide alone, 1 mM in 1X PBS, neutral pH, one week at 37 °C with 900 RPM orbital shaking; endpoint ThT (15 µM) and negative-stain TEM; self-assembly into fibrils.
Data set [2] deals with the molecule itself. Kind of data set: ThT fluorescence aggregation assay + TEM; peptide alone, 200 µM in 1X PBS + 25 µM ThT, 37 °C, one week, endpoint ThT; fibrils checked by negative-stain TEM; self-assembly into fibrils.

B1: 275VQIINK280 peptide (peptide)
peptide: Ac-VQIINK-NH2
notes: source: synthetic peptide, bought: GenScript (≥95% purity)
As for B1, the binding result in data set [1] is on record as “binds”.

B2: VQIVYA peptide (peptide)
peptide: VQIVYA
notes: Acetyl and amide caps and the supplier (GenScript) are stated only for the ZipperDB-predicted hexapeptides; likely the same here; also called VQIVYK alanine mutant at position six; source: peptide
With B2, the binding result in data set [2] is recorded as “binds”.

B3: 306VQIVYK311 peptide (peptide)
peptide: Ac-VQIVYK-NH2
notes: also called WT; source: synthetic peptide, bought: GenScript (≥95% purity)
Take B3: the binding result in data set [1] was “binds”.

B4: VQIVAK peptide (peptide)
peptide: VQIVAK
notes: Acetyl and amide caps and the supplier (GenScript) are stated only for the ZipperDB-predicted hexapeptides; likely the same here; also called VQIVYK alanine mutant at position five; source: peptide
In the case of B4, the binding result in data set [2] is “binds”.

B5: VAIVYK peptide (peptide)
peptide: VAIVYK
notes: Acetyl and amide caps and the supplier (GenScript) are stated only for the ZipperDB-predicted hexapeptides; likely the same here; also called VQIVYK alanine mutant at position two; source: peptide
With B5, the binding result in data set [2] is “binds”.

B6: AQIVYK peptide (peptide)
peptide: AQIVYK
notes: Acetyl and amide caps and the supplier (GenScript) are stated only for the ZipperDB-predicted hexapeptides; likely the same here; also called VQIVYK alanine mutant at position one; source: peptide
Consider B6, for which, in data set [2], the binding result is “binds”.
